Experimental data published in the supplement of paper PMC9732359.
± gives the uncertainty stated by the source.

Assay: protein stability index of a GFP-peptide fusion (yeast GPS) (PSI 1-4); higher = more stable; sorted into four equal gates, so the index is relative within each strain
Outline: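 Tiled 17-residue yeast protein peptides were fused downstream of GFP in a plasmid that also expresses Cherry, and the pooled library was carried in yeast. Mid-log cultures in leucine-free medium were sorted into four equal gates by GFP/Cherry fluorescence ratio, and plasmids from each gate were PCR-amplified and Illumina-sequenced, with reads assigned to strains by barcodes. The protein stability index for each peptide was each gate's read frequency times its gate number, summed.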

Sequence	protein stability index (doa10∆)	protein stability index (pdr5∆)	protein stability index (san1∆)	protein stability index (ubr1∆)
SSPTLATGFGAHMANPL [PRE4]	3.26 ± 0.09	3.07 ± 0.097	2.98 ± 0.068	2.65 ± 0.097
GRKVLQKVQGESHIDSR [SIR4]	3.27 ± 0.14	3.33 ± 0.079	3.17 ± 0.09	3.27 ± 0.09
GNLSKREIQIDAVLKIF [SRB8]	2.75 ± 0.065	2.83 ± 0.063	2.99 ± 0.063	2.68 ± 0.049
LLSIKLPGKVNTKEEFA [SNF5]	2.15 ± 0.17	1.82 ± 0.083	1.78 ± 0.16	2.51 ± 0.23
SESVGAFLSFLAYRNYW [YJL039C/NUP192]	1.69 ± 0.073	1.97 ± 0.11	1.72 ± 0.12	1.84 ± 0.084
RNEDARRNLRYGDRMKL [RPO31]	3.37 ± 0.096	3.38 ± 0.084	3.21 ± 0.08	3.38 ± 0.065
PGPRLLYENIASSPIIL [RPN10]	2.1 ± 0.03	2.29 ± 0.038	2.2 ± 0.057	2.12 ± 0.028
QNDELTMGMRALLKLSV [DIS3]	2.01 ± 0.094	2.49 ± 0.078	1.55 ± 0.067	2.7 ± 0.066
ATFLLTDIKDTLTKISM [MCD1]	3.03 ± 0.13	3.14 ± 0.13	2.88 ± 0.099	3.17 ± 0.08
VKWVHMIIDEGHRMKNA [SNF2]	1.81 ± 0.12	1.91 ± 0.075	1.77 ± 0.13	3.11 ± 0.2
QPAQPRESRIVSTEGNV [RPL21A]	2.49 ± 0.07	2.83 ± 0.074	3.04 ± 0.069	2.87 ± 0.086
ITSLQDSSSQCIVDFTN [YMR129W/POM152]	2.67 ± 0.067	2.92 ± 0.066	2.69 ± 0.058	2.85 ± 0.059
LNLNNSELQPQNRSLQE [SNF2]	3.24 ± 0.046	3.31 ± 0.057	3.31 ± 0.08	3.27 ± 0.055
RGVDAGKGNTFEKVGSH [RPN14]	2.71 ± 0.24	2.98 ± 0.17	3.67 ± 0.11	3.33 ± 0.12
ELVDMAGAGEANGTVVS [MTR3]	2.98 ± 0.12	3.11 ± 0.14		3.05 ± 0.087
IVERETNWIIYPLWVMA [CSN12]	2.81 ± 0.19	3.42 ± 0.24	2.76 ± 0.24	
NIDYQKGLLIWRLLFID [GRR1]	1.9 ± 0.06	1.28 ± 0.063	1.22 ± 0.2	1.45 ± 0.068
APGKVELAINLIRFDES [SMC2]	3.12 ± 0.16	3.11 ± 0.11	3.52 ± 0.12	2.83 ± 0.08
TAVATLLKELSKNAQFI [SMC3]	2.88 ± 0.071	2.66 ± 0.052	2.8 ± 0.049	2.66 ± 0.048
DWPTYVDQNPLTMHKII [SRB8]	2.45 ± 0.09	2.76 ± 0.08	2.69 ± 0.074	2.91 ± 0.07
NSLLLDSTPEEVSCKLL [YML103C/NUP188]	2.67 ± 0.081	3.16 ± 0.08	2.97 ± 0.085	2.71 ± 0.08
GLALQLFKKLKEENDEG [RPN2]	3.27 ± 0.12	3.28 ± 0.12	2.96 ± 0.1	3.41 ± 0.096
IPAAGNNRSVSMQTIAE [SRB5]	3.09 ± 0.078	3.12 ± 0.087	3.22 ± 0.081	3.3 ± 0.07
YRNFMVNSYRLNPNEYF [SWI3]	1.69 ± 0.12	1.45 ± 0.058	2.3 ± 0.1	2.46 ± 0.075
NNKNNSITTGNDNENIV [MED2]	2.89 ± 0.046	2.94 ± 0.047	2.95 ± 0.044	2.99 ± 0.046
GQLLKDHLIIEPEEEKS [ARP9]	2.15 ± 0.084	1.77 ± 0.066	1.6 ± 0.096	1.71 ± 0.038

Sequence	protein stability index (doa10∆)	protein stability index (pdr5∆)	protein stability index (san1∆)	protein stability index (ubr1∆)
IGQLIGEVMKELSEEKY [RPT4]	3.27 ± 0.063	3.42 ± 0.076	3.44 ± 0.067	3.27 ± 0.042
KDIFRYMQRTVEEAHDF [RPB2]	2.24 ± 0.075	1.45 ± 0.046	1.91 ± 0.12	1.3 ± 0.045
AFGFVDRTLPHFSKDDY [RPO21]	2.81 ± 0.068	3.17 ± 0.05	2.85 ± 0.052	3.16 ± 0.035
PNADDIRDSIPQMDSFD [DIS3]	2.79 ± 0.078	2.86 ± 0.089	3.14 ± 0.09	3.06 ± 0.052
TGEAQVDNSPTTESNSR [YLR335W/NUP2]	2.98 ± 0.086	2.83 ± 0.09	2.59 ± 0.13	3.06 ± 0.092
LPEQLKSGKFCSHCGCV [SNM1]	2.79 ± 0.084	3.11 ± 0.15	2.89 ± 0.076	2.7 ± 0.071
NDNEGKHISASIDNDFS [YAR002W/NUP60]	3.05 ± 0.089	3.04 ± 0.071	3.19 ± 0.099	2.92 ± 0.067
WKQDLTKEEAIKLASDA [PUP1]	2.81 ± 0.19	3.16 ± 0.14	2.2 ± 0.14	3.01 ± 0.16
SSEQFNVWDWNNWTSAT [GAL11]	3.08 ± 0.1	3.17 ± 0.095	3.14 ± 0.067	3.1 ± 0.083
TKSGATTSEKQEVTNEA [GAL11]	2.99 ± 0.28	3.52 ± 0.19	2.9 ± 0.28	
RKINLFYLYMLVQKFGG [SWI1]	1.59 ± 0.099	1.23 ± 0.048	1.16 ± 0.18	1.08 ± 0.072
GAGGLNPFTSATSSTNA [YOR098C/NUP1]	2.04 ± 0.12	2.07 ± 0.18	2.69 ± 0.18	2.94 ± 0.13
ISNVIKPNQTIMVLDAS [SRP54]	2.48 ± 0.062	2.56 ± 0.053	2.83 ± 0.06	2.67 ± 0.059
VFLKHSLSIKLATLHYQ [RPN6]	2.22 ± 0.059	2.57 ± 0.067	1.71 ± 0.11	3.08 ± 0.055
IVKTTTKQRLDAYYDLE [PRP8]	2.77 ± 0.092	3.28 ± 0.069	3.07 ± 0.05	3.19 ± 0.044
EKKAASAKQTAPNNSNG [MED7]	2.94 ± 0.15	3 ± 0.13	2.95 ± 0.14	2.41 ± 0.24
TMRRQKLTILQEGIEAI [RET1]	2.39 ± 0.076	2.67 ± 0.051	2.8 ± 0.078	2.96 ± 0.062
DSMKYTISSLFVQLCEM [RPC82]	1.86 ± 0.044	2.26 ± 0.042	2.15 ± 0.062	2.17 ± 0.043
FERFPSPSTSANVPSTA [RPN4]	1.81 ± 0.046	1.92 ± 0.04	1.56 ± 0.077	2.36 ± 0.039
KNQLRDWIRFVSIRQNQ [RPL22B]	1.51 ± 0.1	1.64 ± 0.061		1.29 ± 0.091
TETLTSKKIVPSPKKVA [SIR4]	2.77 ± 0.089	2.87 ± 0.083	2.63 ± 0.066	2.55 ± 0.12
RDMTYSAPIYVDIEYTR [RET1]	2.17 ± 0.092	1.98 ± 0.083	1.79 ± 0.14	1.81 ± 0.069
DSVFEQNEMIDAIAVTK [RPL3]	2.57 ± 0.095	2.8 ± 0.12	2.31 ± 0.1	2.51 ± 0.042
DITGDIRNEGSDAEEEE [ISW2]	2.83 ± 0.16	3.1 ± 0.1	3.05 ± 0.089	2.91 ± 0.068
EQVLSAAATFPIAQPAT [RPL13A]	2.66 ± 0.059	2.24 ± 0.057	1.74 ± 0.084	2.54 ± 0.043
